Source: the domain aggregation screens of Martell et al. (2025)

Test: soluble fraction after stress (log2 fold change); higher = more stays soluble; pooled small domains, quantitative proteomics
Conditions: stress: 50 degC
In short: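 After stress at 50°C, the amount of each protein still soluble was measured. This was done on pooled custom libraries of small protein domains, using high-throughput quantitative proteomics. The figure given is a base-two log fold change and stands for aggregation propensity, with higher values meaning more protein stays in solution.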

| Sequence | soluble fraction (log2) |
| --- | --- |
| HMDDVIDVYATYDKSAEGVLSNIQLFSNQKKTTPITPESGKIYIDVEGNYQFRWTGTQYATV | -0.111 |
| HMLELDRTNLLGVFGSKSNPYALIMLSNGEMLKLSIGDQFLGWRVYAIDQTTVHVQNGKNQEILRIP | -1.13 |
| HMSILDEAEFKKIESALLDFITNNIFTVKELLQASRGIKQDKFWKVFQFLQSERKVVVNELGYIEL | -0.205 |
| HMRNPLYAQVADYVMQQIAAGTYRPHQAIPTEWQLAKKLEVSQGTVRKGLDELVFKQILYRQQGVGTFVAD | -1.19 |
| HMHTTIIVASRDIAAGSVLTSHDLSSVAWVGGAVPKGSYTAADLAVGKTAFTAFQQGEPILESRLAS | -0.00332 |
| HMDNIGKTLGQNQTRQYKVAYAEAAKLPAIIMGLVPLPKPPVVDERLRSLYVTATPEQHRQIETLMNRI | 0.11 |
| HMLLGPDALTNRELDVLALLERRLSNKEIGALLYISPRTVKRHTINIYQKLHVNNRRAAVAQAKALGLMPD | -1.79 |
| HMPYFLKQSNTRSKGLYLQIYHSFYVPGKGSRNKSYKAIGYVSELIKNGIEDPITYAKNLVDELNNNSSTP | -3.75 |
| HMGQMGHAVVAKTDLAVGTPLTRDLVAVREVPVEWLHSSAITPEQFERAAGAVLAQPARGGEPLVWSQLEE | 0.0906 |
| HMGPNYYDILEIPTDASPSEITQAFRKKALEWHPDKNPNNLEEATSRFIEIVEAYRVLSSKDSKLQYDTG | 0.0242 |
| HMPIRVGDAFESLAGVFPDEYNKALRKSTKKPVFFVPVKVEAGSGALRQKGKITFIVKDGRIDAIQIAL | -1.21 |
| HMSTVAETVYNEIRDDILYGELQPGVKLKLEALRERYSVGVNTLREVLNRLVASGFVFVEGQKGFRVV | 0.0966 |
| HMITNMIIIMKPNASEEAIEKVKHLIESKGLQAHLSKGDEVTIVGVVGDKTRLHDSNIEISEGVDKIVNVT | 0.317 |
| HMKKTITISNYINVRDFATMSELPVNSILSVLMKNGIFVSLNEKIDFDTAWLVGSELGLEVKQKQG | -0.214 |
| HMLGIGANVQKIAQERKISLKELSRRAGIPYTTIYNMVKRDSSRVSPENLQKLADALGVEIGKLYG | 0.0652 |
| HMAEERVLSVPQSLAGERLDAALASLMPDYSRSRLASWIKEGLVTVDGAGAMPKQKLWGGETLRVQAQPT | 0.463 |
| HMDRASGEEEALKEAEDAISRVWEFDGPVELNPQNSYLRRLQHELASRYNVKSVSIGQEPNRRVVYYK | -0.0181 |
| HMAKETLRANIKDYIQKQIASGVYRPGDRIVETQLAREMNVSQAPVREAILELVSLGLLEERPYSGHMVRQ | 0.178 |
| HMEVPQVETEKVEAKLKEAEVLLVKVTDSSLKANATETLAGLRNNLTLQTMDNNGIMAEAEKLLALLRES | 0.0393 |
| HMSFNLSETKKLILEEIQKGVSSVTQIAATAGISKGMTYNHLRELKLMGYIADGDSGYVITDAGKIAS | -0.04 |
| HMASFASRAEEVMTKLLANGQPRIKEVADAMHLSSRTLQRRLEREGVSFAELLDRLRKRLAHDMLAHS | -0.813 |
| HMKGSYTVKSGDNLWSIARKFYGGSGSTWTKIYSANKSTIESTARRYGRSSSDNGHWIYPGTVLVIP | 0.0541 |
| HMTDMYLTYQELRHLGVSQNLISMWKSRKSIDFHMLGGTLYVRYMSIPEQTRSKLALQNVERVYNSRE | -2.55 |
| HMSSLQFVTLTLMEGHAWVGREIQELLMPPQMRIALIRRGDSQVIPKGSTILESADELILSAIEYQG | -4.14 |
| HMRQQAFWALVPEERDVLDETGAPLFRIGPTAWALVIEDRGEVFVVRDEDGRVGYLHEVDGVTR | -1.52 |

| Sequence | soluble fraction (log2) |
| --- | --- |
| HMHNLYAPTQKEVDHARRVVEAAEAAAREGLGVVSLNGKMVDGPVIDRARLVLSRAELSGIRE | 0.072 |
| HMDKEVMEAVLRILYDDDFNPDQRDAILYFFVQELDQRTISEITGAKIGTVKKRIHDGLKKLRQKLAKEDL | -1.36 |
| HMEAFELTPREKQVLQLLVQGKAYKIIAADLDITYDTVRAHIKKIYEKLHVGSMTEAVAKAIQHKL | -0.882 |
| HMELNEMEAWSLVSKALRNGTYGAVEEFSRLPPTVQEAVGNPDNLRNWATSDYKAIETVIQSNFIKTY | -0.12 |
| HMDNITIYSSNGKIYVNAIGGEKIELFNITGQKVAEKVAVSGINVLDAVYDITLVKVGSKVVKVV | -0.123 |
| HMSTLTLTSGTYAVGENIKAGKYTIMGSGSIAISSSGKARVNSNLTADRKDYVLNDDETIKIKGKAQFIPI | 0.11 |
| HMQEEFVAPDVKDGAIVLHKAFGEGTVTKIDKAQKHIRVTFGVGEKTFIFPDAFKQGFLRMKG | 0.348 |
| HMNMMIIHVNGEKYSFQEPITISELILKLELDSRKIAIEYNLEILPRSLFEITSIKNGDKIEIVHFI | -2.37 |
| HMTMTKELGQRIRAERTARKMTQEELAERADLHPTYIGQVERGEKSLTIASLEKIVEGLGISFSDLFEN | -0.0406 |
| HMILNWSEYTRSEIIELARDLSPDKYMIIDDINTYSKMKLLPSQAFIAEMFGSLRQFQKEAWGRE | -1.88 |
| HMPKSVRQSFVYSPMYRDVEYLADFLRNNNKDDSSVSASGDKLVYYGTADEIARVKSVLKGVDV | -0.026 |
| HMEKVTAPMPGVINSIVKNVGDTVKRGDVVLILEAMKMENEIVAPKEGKIASINVAKGASVNAGDVLFSI | 0.294 |
| HMVLTGTIKKYNNERGFGFISTSNFGDVFFHIKDFQKGEQPIPGREVYFEVVKKENKKRAIHVYYSD | -1.02 |
| HMNQNIYVPKLEGLQIEEASSILKSKGLNIEITDSIFRKDAVPGAIIEQTPKPNSRVKTGRNIYVSIYSK | -0.0536 |
| HMDKAALGQKLRQARLDKGYTQQSLSEKADIGEVYLSEIERGLKMPSMNLFIKLITALDISADYILR | -1.44 |
| HMGIPVSIGQLDFNQARGNLALQVRASDFAALEQLRQRLGQTGESVQLGSASRDGDAVSARVVIGGQ | -0.015 |
| HMGAPLAVGDSVRVVVSGPRAFVYTAPNGALSGAVRNGAAFTVLELSPDNTWARIGSGEWIKVEFLATG | 0.0428 |
| HMSNVDYSQFKKDTVVEHTKFGRGIIIQTSGDGEDKIAAIAFKGLGVKRFSLAIAAASLKIIGKNDE | -0.0817 |
| HMDTQITPNKAKEIALAHAGVTEAAANFKKIKLDNKNGKSIYEIEFIANKSRYEFIVDAKNGSIIKFEK | 0.0656 |
| HMQKTPFEIMTIYKDQILEMLGKDLTATEISIVLKKKGEKVHPREIRKFQLQHYEEVQDMRKKWRE | -1.16 |
| HMEFDVELTSFEEAKKLKVIKEVKDVTGLSLGEAKDLVMGAPKAIKTGVSKEEAEAIKTQIEAAGAVVTI | 0.122 |
| HMGRAAEETETFRTQGELDARIKELQGQMRDAAANLEFERAAGLRDTLKRLRTRGLGLSASP | 0.0346 |
| HMNEKFNVYPIPVYNNLNITGLSKPVTYLISSIDGKTIKNGVFQESIDVSDLKSGLYFLQVETKDPVKFIK | -0.658 |
| HMNPSKEFNMSDLLKAKMVGDVSAAKRREKAGALLHIGYGNAKTFLKKLNHFSISREEWDKVIAAMEEF | -0.743 |
| HMNNIPFIITDERLNVIQSHLVPREVLDHPDRLRRQIDRFTEENQPKTVNYWWGPEHRHIIFYGKSK | 0.445 |

| Sequence | soluble fraction (log2) |
| --- | --- |
| HMQAESLTVVRSAELKADRFLDAATLQTLQTGQVVESLRTESGWVQVRIAGQQGWVRAMNVKGA | -0.459 |
| HMITEDQVIARIGLLSPAEKSLLKDKLERFRRLTLSEQQHLREFHSALDNHDKRTDLLNVLRKYNDWVNQL | -1.67 |
| HMTVSIDSLFDKFEDLQEQGLGDKTEEGQELRGLIRAFIEQEHLSVRITRSTSNQELLDMIEEAMQ | -1.45 |
| HMTGTVKVNSLNVYKSASLDSEVKDTLVLNTKVTIAENGQVTDGIYVWGRLQSGEGYVQMNNLTL | -0.687 |
| HMDEIELLLQDAIQKLPEKQRMVFTLRYYDNLPYEEISKILDMSVSTLKTNYHYAKSKIEQYILDHS | -0.607 |
| HMGDGMEVWVNGSPVNLTGKDSFIFVDIFDFIDFDLTASKGRLIVIKVNGEYAEYTRPLHNGDTIEIYWEE | -0.0714 |
| HMQQVIEGLDSDRDFITVPEAIALFAVGRQTLYHYIRSGKIPSVNLGQRLTRLSKKQLGELFPLR | -1.63 |
| HMNSVLPQEVKSSLNDFFTKYAPGSIAQKLINHASFTGGKVVVTGVELTQTQADDLKKAFKDKFF | 0.000827 |
| HMVVYQRVHDEILQALKDNVYPVGTLLPPEPELERIYSVSRTTVRRAIAKLSEEGYVQVRQGYGTMVLKN | -0.576 |
| HMYYNDEELDGYRGTPSDAYSDNAVEEFREVLYTLREDEVSGWVRSLQLRGIFLPDAIKDETFLI | -1.59 |
| HMDREIVEAIVPLEAAGKRFDAALAEMFPEFSRSRLTEWIKAGDALLAGEIVKPKVSVRGGEAVSLSIRV | -0.485 |
| HMDGDFGMNLDWQPSEHFPTLARQAGIPADHITAEAIAEFRSYWIGQGKAMTQYQWDHKLLTNLKATKTR | -1.14 |
| HMEARNDWAQQSRADAEFGGEKLDENLAVAKKAVEALASPELKTLLEQSGLGNHPEIIRLFYRAGRSLS | 0.132 |
| HMDKNNLHSVLQDVPGIGPKRMKELMRAFGSVEGMKKAGLEELAAVKGMNHKAAEALIQFFR | 0.199 |
| HMPLKLIDVYLGRHGKKRYDVFKETGLSQQTLASANGKPAAALTGRILQAIGRTVGETPGRVLDEMLMIEQ | -0.691 |
| HMNPAIYIRKNILNLTQEKLSEYLDVTQPTIHRWEESGVIPAKHQRQIREFASEKGIYWNDSWFFSIPDE | -0.953 |
| HMPAQPEPYNNLARLYSAQGKLDQAASLLRAGLYTDPAYRALFDNLTRIYAEQAARSLSAALD | -0.907 |
| HMVEVPYSEFLKELDAGNVKDVYVSNGESQIQFTKKDQKQWNLSYKTGPIPGDDLVKRLQNADVENFT | 0.0879 |
| HMNFTVTDKNAVLYSNDNTKVYESPDINSKLVTTIAKDLPVNVTGITSNGWFRISLEGTYYVPGNGLEQR | 0.141 |
| HMAEPRVQEVYFEFDGKQVEAGQVVSLIEQAYKNEGHQIGRIKDLKVYINSEEGKAYYVINGDDGEGKYIE | 0.0517 |
| HMKPRISMITLGVKDLNKSIEFYGGGLGFPRKKTEPEIAIFKLNGSWLSLYNRGLLAEDANVS | -0.0946 |
| HMSYANVEWRDFLNSLDEKYRIVVILYYVQGFKTREIAEILQINQSTVRGRLAKAREKLEQQYN | -1.46 |
| HMTESLVITVDPALHGLRLDRGLADALPDRSRSEVQRWIKEGRVQLHGAPAKPSLKLAAGDIVTIALPEE | 0.393 |
| HMEKIDYLSIGHRLRAYRIASSLKAEDVAESLGISRAAVYRLEKGEIVKIETLDNLARLLNTSLSSLLG | -2.94 |
| HMLIDSNNYFFYKVKPKEGFYSLQKKLGVNRSEIEKHNPSLINEVLKEGMILKIPKYLLNFDLN | -0.297 |
